Results: article PMC12460018

Key:
[1] = target: plasma-derived von Willebrand factor, highly purified in-house control preparation (human) (UniProt P04275); test: ELISA + SPR; VWF:FVIIIB, measured by an ELISA combined with a chromogenic assay (ECA) and by Biacore; the table does not say which gave the percent
[2] = target: recombinant von Willebrand factor, furin-matured (human) (UniProt P04275); test: as above

VWF:FVIII binding capacity (%) [1]: 109% | VWF:FVIII binding capacity (%) [2]: 108%
Substance: factor VIII, P00451 20-2351
